# Results reported in IntAct's records for PubMed 17157788.
# Target: aatf_human AATF (UniProt Q9NY61)
# Sequence (Q9NY61 whole entry): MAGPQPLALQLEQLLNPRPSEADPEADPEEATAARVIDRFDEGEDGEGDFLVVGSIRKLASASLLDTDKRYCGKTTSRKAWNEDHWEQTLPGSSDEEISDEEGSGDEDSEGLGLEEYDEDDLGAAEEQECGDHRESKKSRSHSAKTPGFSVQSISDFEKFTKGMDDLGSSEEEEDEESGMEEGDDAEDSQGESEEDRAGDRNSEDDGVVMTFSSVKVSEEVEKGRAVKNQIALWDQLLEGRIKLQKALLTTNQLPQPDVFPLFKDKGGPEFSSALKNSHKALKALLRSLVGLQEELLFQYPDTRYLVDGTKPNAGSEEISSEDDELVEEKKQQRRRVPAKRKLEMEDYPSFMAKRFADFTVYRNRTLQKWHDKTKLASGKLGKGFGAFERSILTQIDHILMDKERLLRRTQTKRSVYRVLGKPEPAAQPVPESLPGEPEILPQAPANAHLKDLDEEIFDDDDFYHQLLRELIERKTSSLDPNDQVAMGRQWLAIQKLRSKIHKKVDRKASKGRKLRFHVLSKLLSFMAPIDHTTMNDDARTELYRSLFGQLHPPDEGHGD
substance,measurement,value
"Serine/threonine-protein kinase ATR (Homo sapiens), Q13535 K2327R",effect of a mutation on the interaction,disrupting interaction
